The values below come from the nanobody polyreactivity screen of Harvey et al. (2022).

The data set can be described thus: yeast display, Sf9 membrane polyspecificity reagent, FACS + sequencing; frameworks hold sequencing errors. The method in brief:
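Nanobodies came from a synthetic yeast display library in Saccharomyces cerevisiae BJ5465, induced with galactose for 36–48 hours and stained for 1 hour at 4 °C with 10% biotinylated, detergent-solubilized Sf9 membrane reagent. Cells were enriched on streptavidin microbeads and then FACS-sorted, with low and high (top ~1%) gates set on anti-HA fluorescence for expression and streptavidin fluorescence for reagent binding. Each polyreactivity label reflects the gate a clone came from. Genes were amplified by colony PCR, sequenced by MiSeq 2 × 250 and filtered by CDR length.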
For the sequence “QVQLVESGGGLGQAGGSLRLSCAASGGTFYAYAMGWYRQAPGKEREFVAAISRRGGSTYYADSVKGRFTISRDNAKNTVYLQMHSLKPEDNAVYYCKALYSSSPGAKPWGEYNYWGQGTQVTVSS”, the “polyreactivity (PSR sort gate)” value was “high polyreactivity”.
Turning to “QVPLVESGGGLVHAGGSLRLSCAASGIILHDNTMGWYRQAPGKERELVAAITSDGSTNYADSVKGRFTISSDNAKNTVYLQMNSLKPEDTAVYYCNTDDGPYTEFDYWRQGTQVTVSS”, the “polyreactivity (PSR sort gate)” value is “low polyreactivity”.
Take “QVQLVESGGGLVQAGGSLRLSCAASGRIFYLYAMGWYRQAPGKERELVATINTSGGITYYADSVKGRFTISRDNAKNTVYLQMNSLKPEDTAVYYCNADWEWQYFYFRPGGYWGQGTQVTVSS”: the “polyreactivity (PSR sort gate)” value is on record as “low polyreactivity”.
For “QVQLVESGGGLVQAGGSLRLSCAASGRTFLRYAMGWYRQAPGTERELVAAISWSGGRTYYADSVKGRFTISRDNAKNTVYLQMNSLKPEDTAVYYCNKVVLYGAHYYYWGQGTQVTVSS”, the “polyreactivity (PSR sort gate)” value is recorded as “high polyreactivity”.
As for “QVQLVESGGGLVQAGGSLRLSCAASGSTFYKYAMGWYRPAPGKERELVATINISGGSTSYADSVKGRFTISRDNAKNTVYLQMNSLKPQDTAVYYSNADAFYLGHDYWGQGTEVTVSS”, the “polyreactivity (PSR sort gate)” value is “high polyreactivity”.
For the sequence “QVQLEESAGGLVQAGGSLRLSCAASGRIFTGSNVMVWYRQSPGKETEFVAVINSGGGSTYYADSVKGRFTISRDNAKNTVFLQMNSLKPEDTAVYYCAADVGGWGYYYWGQGTQVTVSS”, the “polyreactivity (PSR sort gate)” value is on record as “low polyreactivity”.
Take “QVQLVESGGGLVQAGGSLRLSCAASGSTFPYYAMGRYRQAPGKERELVAAISQNGGSTYYADSVKGRFTISRDNAKNTVYLQMNSLKPEDTAVYYCNADGVGGEYRLSGYDYWGQGTQVTVSS”: the “polyreactivity (PSR sort gate)” value is recorded as “low polyreactivity”.
On to “QVQLVESGGGLVQAGGSLRLSCAASGSIFRFYVMGWYRQAPGKEREMVAAISIGGSTNYADSVKGRFTISLDNAKNTVFLQMNSLKPEDTAVYYCAADYWYGAGMPHGTEFDYWGQGTQVTVSS”, for which the “polyreactivity (PSR sort gate)” value is on record as “low polyreactivity”.
Take “QVQLVESGGGLVQAGGSLRLSCAASGSILWSYAMGWYRQAPGKERELVAAITSGGSTYYADSVKGRFTISRDNAKNTVYLQMNSLKPEDTAVYYCAADRWRDFWFNEEYWGQGTQVTVSS”: the “polyreactivity (PSR sort gate)” value is recorded as “high polyreactivity”.
For “QVQLVESGGGLVQAGGSLRLSCAASGNTFFDYDMGWYRQAPGKERELVATITNSGTSTYYTDSVKGRFTISRDNAKNTVYLQMNSLKPEDTAVYYCAADLFYAVLGNEYDYWGQGTQVTVSS”, the “polyreactivity (PSR sort gate)” value was “high polyreactivity”.
With “QVQHVESGGGLVQAGGSLRLSCAASGSTIRNYAMGWYRQAHGKERELVAAISSGGRTYYADSVKGRFTISRDNAKNPVYLQMTSLKPEDTAVYYCAARVYYWSFAGILYTPTGGYWGQGTQVTVSS”, the “polyreactivity (PSR sort gate)” value was “high polyreactivity”.
With “QVQLVESGGGLVQAGGSLRLSCAASGITLDVNALGWYRQAPGKERELVADITWSDDSTYYADSVKGRFTISRDNAKNTVYLQMNSLKPEDTAVYYCAADVSVSFHPRGYDYWGQGTQVTVSS”, the “polyreactivity (PSR sort gate)” value is listed as “low polyreactivity”.
On to “QVQLVESGGGLVQAGGSLRLSCAASGRIFYRNAMGWYRPAPGKERELVAAISGSGGSTSYADSVKGRFTISRDNAKNTVYLQMNSLKPEDTAVYYCAAYKLYWGQGTQVTVSS”, for which the “polyreactivity (PSR sort gate)” value was “high polyreactivity”.
With “QVQLVESGAGLVQAGGSLRLSCAASGSTLVGNTMGWYRQSPGKERELVAAITGVGSTNYADSVKGRFTISRDNAKNTVYLQMNSLKPEDTAVYYCAVDGRSVQARWPRFDYWGQGTQVTVSS”, the “polyreactivity (PSR sort gate)” value was “low polyreactivity”.
In the case of “QVQLVESGGGLVQAGGSLRLSCAASGSTFRWYAMGWYRQAPGKERELVASISGSGGSTYYADSVKGRFTISRDNAKNTVYLQMNSLKPEDTAVYYCNKRYFTYLGEHTVGYWGQGTQVTVSS”, the “polyreactivity (PSR sort gate)” value is “high polyreactivity”.
With “QVQLVESGGGLVQAGGSLRLSCAASGSILRLYVMGWYRQAPGKERELVADISDRGGSTYYADSVKGRFTISRDNAKNTVYLQMNSLKPEDTAVYYCAAEWGQSGGGGYYYWGQGTQVTVSS” the entry was “low polyreactivity”.
